Reference: the supplement of paper PMC7877785
± gives the uncertainty stated by the source.

Test: self-splicing fitness, log relative to wild type (ln ratio); higher = more splicing; Tetrahymena group I intron in knt gene, E. coli kanamycin selection, DiMSum; sequences stand for … in CUCUCU…GGAGGGAAAAGUUAUCAGGCAUGCACCUGGUAGCUAGUCUUUAAACCAAUAGAUUGCAUCGGUUUAAAAGGCAAGACCGUCAAAUUGCGGGAAAGGGGUCAACAGCCGUUCAGUACCAAGUCUCAGGGGAAACUUUGAGAUGGCCUUGCAAAGGGUAUGGUAAUAAGCUGACGGACAUGGUCCUAACCACGCAGCCAAGUCCUAAGUCAACAGAUCUUCUGUUGAUAUGGAUGCAGUUCACAGACUAAAUGUCGGUCGGGGAAGAUGUAUUCUUCUCAUAAGAUAUAGUCGGACCUCUCCUUAAUGGGAGCUAGCGGAUGAAGUGAUGCAACACUGGAGCCGCUGGGAACUAAUUUGUAUGCGAAAGUAUAUUGAUUAGUUUUGGAGUACUCGUGGUCG
How it was run: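 DiMSum derived fitness as the error-weighted combination of fold changes across replicates, kanamycin versus no kanamycin, normalised to wild type. E. coli BL21(DE3) held the library, which randomised all eight P1ex-region intron nucleotides within the knt kanamycin-resistance gene on pET-22b(+). Six replicate transformations grew overnight at 37°C or 30°C on LB agar with or without 25 μg/mL kanamycin, also containing 100 μg/mL carbenicillin, 50 μM IPTG and 0.2% rhamnose, and pooled colonies were amplicon-sequenced on an Illumina HiSeq 2500.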

Sequence | self-splicing fitness (ln) (30 °C) | self-splicing fitness (ln) (37 °C)
UGAGAGCAAUAUUACGGUAA | -4.27 ± 0.25 | -2.27 ± 0.23
CACAAGCAAUAUUACGCCAA | -2.76 ± 0.27 | -2.01 ± 0.21
CCCGAGCAAUAUUACGAUCU | -3.09 ± 0.19 | -2.68 ± 0.23
UUCGAGCAAUAUUACGUUUC | -3.44 ± 0.35 | -2.37 ± 0.35
UGACAGCAAUAUUACGCAUA | -0.976 ± 0.07 | 0.0999 ± 0.082
GACCAGCAAUAUUACGCGGA | -1.06 ± 0.1 | -0.442 ± 0.1
GGAGAGCAAUAUUACGAUUC | -1.58 ± 0.29 | -0.911 ± 0.26
AUGUAGCAAUAUUACGAUAA | -1.76 ± 0.13 | -1 ± 0.15
CACCAGCAAUAUUACGUGUA | -2.09 ± 0.065 | -0.896 ± 0.069
GGGAAGCAAUAUUACGGCUA | -0.707 ± 0.089 | 0.0151 ± 0.12
AUAUAGCAAUAUUACGUGUU | -4.26 ± 0.39 | -1.21 ± 0.18
AUGUAGCAAUAUUACGUAAU | -1.21 ± 0.11 | -0.524 ± 0.12
UCGUAGCAAUAUUACGCGAG | -4.07 ± 0.23 | -2.43 ± 0.16
GUCUAGCAAUAUUACGUAUG | -2.94 ± 0.18 | -0.896 ± 0.13
CGUAAGCAAUAUUACGGUGU | -4.11 ± 0.25 | -3.24 ± 0.21
ACAGAGCAAUAUUACGUCAA | -2.04 ± 0.21 | -3.16 ± 0.3
ACUGAGCAAUAUUACGAUAA | -2.94 ± 0.26 | -2.75 ± 0.32
AGGAAGCAAUAUUACGAUGG | -2.53 ± 0.16 | -1.88 ± 0.21
UUCGAGCAAUAUUACGUACG | -3.15 ± 0.38 | –
AGUAAGCAAUAUUACGCCAU | -2.81 ± 0.2 | -1.93 ± 0.22
ACCAAGCAAUAUUACGAAAC | -4.33 ± 0.34 | -1.71 ± 0.25
GAGCAGCAAUAUUACGCUCG | -2.11 ± 0.33 | -0.285 ± 0.22
GCCAAGCAAUAUUACGAAUC | -1.25 ± 0.078 | -1.5 ± 0.095
CUAUAGCAAUAUUACGUCGU | – | -2.24 ± 0.34
UACAAGCAAUAUUACGUUUU | -3.05 ± 0.11 | -2.32 ± 0.12

Sequence | self-splicing fitness (ln) (30 °C) | self-splicing fitness (ln) (37 °C)
AGCAAGCAAUAUUACGAUCC | -1.8 ± 0.18 | 1.31 ± 0.25
GGUUAGCAAUAUUACGUCCA | -1.17 ± 0.3 | -0.199 ± 0.34
UACGAGCAAUAUUACGAUCC | -3.23 ± 0.33 | –
CAGUAGCAAUAUUACGUGAU | -4.22 ± 0.34 | -1.2 ± 0.15
AGGCAGCAAUAUUACGCCUA | -1.98 ± 0.23 | -0.0372 ± 0.14
UAAAAGCAAUAUUACGCCCU | -0.622 ± 0.095 | 0.457 ± 0.15
GGUCAGCAAUAUUACGUGUU | -0.208 ± 0.047 | 0.537 ± 0.063
AAGAAGCAAUAUUACGUAAC | -2.35 ± 0.14 | -1.2 ± 0.12
GAACAGCAAUAUUACGUAAU | -0.976 ± 0.065 | -0.107 ± 0.09
CUUAAGCAAUAUUACGGCAG | -0.565 ± 0.099 | -0.3 ± 0.12
AGAAAGCAAUAUUACGUUUA | -1.96 ± 0.13 | -1.04 ± 0.11
CCCAAGCAAUAUUACGACGU | -2.11 ± 0.13 | -2.43 ± 0.2
CAAUAGCAAUAUUACGCAGG | -1.75 ± 0.13 | -0.433 ± 0.11
GCCCAGCAAUAUUACGUACC | -1.05 ± 0.12 | 0.0161 ± 0.17
GCUGAGCAAUAUUACGAACC | -1.08 ± 0.14 | -0.236 ± 0.18
ACAGAGCAAUAUUACGAUAG | -2.78 ± 0.26 | -3.02 ± 0.35
CGGCAGCAAUAUUACGCAGA | -3.27 ± 0.31 | -2.48 ± 0.22
GCUUAGCAAUAUUACGAUUA | -1.01 ± 0.11 | -1.03 ± 0.1
GUAUAGCAAUAUUACGUCAC | -3 ± 0.29 | -1.7 ± 0.26
CACGAGCAAUAUUACGACAU | -3.645 ± 0.024 | -2.92 ± 0.04
GGCCAGCAAUAUUACGGACU | -2.24 ± 0.1 | -1.2 ± 0.1
CAAGAGCAAUAUUACGCUGU | -3.93 ± 0.36 | -2.34 ± 0.24
UUUUAGCAAUAUUACGGCCA | -1.57 ± 0.19 | -0.0772 ± 0.19
ACCGAGCAAUAUUACGUGGU | -3.77 ± 0.17 | -2.05 ± 0.18
ACUAAGCAAUAUUACGCAAU | -2.04 ± 0.076 | -1.65 ± 0.086

Sequence | self-splicing fitness (ln) (30 °C) | self-splicing fitness (ln) (37 °C)
CCGUAGCAAUAUUACGCCGG | -2.94 ± 0.49 | –
UACUAGCAAUAUUACGUUGC | -2.38 ± 0.26 | -1.85 ± 0.28
CGAAAGCAAUAUUACGACUU | -1.64 ± 0.12 | -0.99 ± 0.14
GGGUAGCAAUAUUACGGAAC | -0.98 ± 0.11 | -1.49 ± 0.19
GCUGAGCAAUAUUACGGGAG | -2.58 ± 0.35 | -2.15 ± 0.3
GGGUAGCAAUAUUACGUAUU | -0.286 ± 0.07 | -1.06 ± 0.11
CGGGAGCAAUAUUACGAGCA | -3 ± 0.19 | -3.2 ± 0.31
CGUAAGCAAUAUUACGUCGA | -2.94 ± 0.21 | -3.07 ± 0.2
AGCGAGCAAUAUUACGGGCG | -1.23 ± 0.08 | -0.431 ± 0.099
GGGCAGCAAUAUUACGUAGU | -0.605 ± 0.086 | -0.727 ± 0.11
GAGCAGCAAUAUUACGUACG | -3.24 ± 0.21 | -1.38 ± 0.17
GUAGAGCAAUAUUACGAGCA | -0.443 ± 0.17 | -0.601 ± 0.22
GGUUAGCAAUAUUACGACCG | -0.946 ± 0.25 | 1.43 ± 0.36
AUUGAGCAAUAUUACGUGCA | -2.91 ± 0.15 | -1.85 ± 0.14
GCAGAGCAAUAUUACGCUGU | -2.66 ± 0.18 | -2.87 ± 0.23
UAGUAGCAAUAUUACGAACU | -0.595 ± 0.16 | -1.05 ± 0.15
AACCAGCAAUAUUACGUUUC | -4.08 ± 0.17 | -2.92 ± 0.21
UCGUAGCAAUAUUACGUUGA | -1.59 ± 0.16 | -0.942 ± 0.14
AACUAGCAAUAUUACGUAUG | -3.11 ± 0.11 | -1.22 ± 0.11
UCUUAGCAAUAUUACGCUCG | -0.481 ± 0.25 | -1.43 ± 0.44
GGACAGCAAUAUUACGUAUA | -0.645 ± 0.1 | -0.388 ± 0.095
GAGAAGCAAUAUUACGUUCA | -0.919 ± 0.2 | -0.374 ± 0.22
GGUGAGCAAUAUUACGCGCA | -0.814 ± 0.21 | -0.146 ± 0.21
UCAGAGCAAUAUUACGGAAG | -3.05 ± 0.26 | -3.41 ± 0.37
UUAGAGCAAUAUUACGGCAC | -3.59 ± 0.38 | -1.95 ± 0.38

Sequence | self-splicing fitness (ln) (30 °C) | self-splicing fitness (ln) (37 °C)
CUGGAGCAAUAUUACGAAUU | – | -1.27 ± 0.29
GGCGAGCAAUAUUACGGACA | -0.299 ± 0.23 | -0.824 ± 0.28
AGUGAGCAAUAUUACGGUCG | -3.55 ± 0.24 | -1.97 ± 0.18
CCAAAGCAAUAUUACGAAGU | -3.04 ± 0.15 | -2.42 ± 0.2
GACCAGCAAUAUUACGUGGC | -4.25 ± 0.21 | -2.88 ± 0.16
AGUAAGCAAUAUUACGGAGG | -2.9 ± 0.28 | -2.29 ± 0.26
AUACAGCAAUAUUACGAGUU | -2.65 ± 0.14 | -0.493 ± 0.1
UGCGAGCAAUAUUACGAGCC | – | -1.67 ± 0.43
CCAUAGCAAUAUUACGCGGA | -2.87 ± 0.16 | -2.26 ± 0.17
CCGAAGCAAUAUUACGUUAA | – | -0.989 ± 0.23
AUGCAGCAAUAUUACGUGAU | -1.76 ± 0.067 | -0.91 ± 0.08
CUAGAGCAAUAUUACGGUGG | -0.455 ± 0.06 | -0.563 ± 0.089
AUGGAGCAAUAUUACGUAGU | -2.7 ± 0.11 | -1.62 ± 0.097
GGUCAGCAAUAUUACGUGCC | -2.9 ± 0.23 | -0.811 ± 0.26
AACAAGCAAUAUUACGAGAA | -2.78 ± 0.32 | -2.03 ± 0.21
AAGGAGCAAUAUUACGCUAU | -3.76 ± 0.4 | -1.69 ± 0.26
GUCGAGCAAUAUUACGCUUC | -5.12 ± 0.38 | -4.17 ± 0.33
ACCAAGCAAUAUUACGCUCU | -0.714 ± 0.06 | -0.02 ± 0.073
UGUAAGCAAUAUUACGUUAA | -2.04 ± 0.13 | -0.926 ± 0.12
UGUGAGCAAUAUUACGAGUG | -1.4 ± 0.071 | -1.16 ± 0.08
CGGUAGCAAUAUUACGUAUU | -2 ± 0.32 | -2.16 ± 0.27
CAACAGCAAUAUUACGCCAA | -2.36 ± 0.14 | -1.62 ± 0.14
